These results are taken from patent publication US20190241648A1 (STATEN BIOTECHNOLOGY B V, published 2019).

Experiment [1] deals with T1, human ApoC3 (huApoC3), native protein purified from human serum (human, UniProt P02656 21-99).
T1 construct: Athens Research and Technology; randomly biotinylated in some assays; also called Apolipoprotein C3
Put plainly: ELISA, biotinylated huApoC3 captured on neutravidin, scFv periplasmic extract. As for the experimental part:
The antibody clones selected from the scFv phage display library constructed in Example 1 were analyzed by a ELISA assay with biotinylated ApoC3 captured by […] which was coated on plates. Neutravidin (Fisher Scientific LDAcat#: W9995L) diluted in PBS (pH 7.4) at a concentration of 2-5 μg/ml (100 μl/well) was incubated in Microtiter Immunoassay Maxisorp 96-well plates (NUNC cat#:1456537 or similar) at 4° C. overnight. The coated plates were washed three times with 250 μl/well PBS-T to remove the excess of the unbound neutravidin. After washing, 250 μl 1% (m/v) of casein solution prepared in PBS was added to each coated well for blocking, and the plates were incubated for 1 to 2 hours at room temperature on a plate shaker (TitraMax 1000, Heidolph or similar). After blocking, the plates were washed three times to remove the excess of the blocking solution with 250 μl/well PBS-T. Biotin groups were introduced at random sites of human native ApoC3 protein (Athens Research and Technology). […] The absorbance of the end-product is measured at 450 nm using a Microplate spectrophotometer.
(In general: An ELISA detects its analyte on a solid surface through an enzyme-linked reagent.)

In experiment [2] the target is T1, human ApoC3 (huApoC3), native protein …. Put plainly: SPR Biacore, huApoC3 on chip, IgG1 as analyte. (In SPR one partner is held on a chip, and binding of the other changes the refractive index at the surface.)
The target is the same in experiment [3]. Description: cell-based or functional assay.
Experiment [4] deals with cynomologus monkey ApoC3 (cynoApoC3), native protein (Macaca fascicularis (cynomologus monkey), UniProt P18659 21-99). Put plainly: SPR (Biacore 3000), antibody IgG1 amine-coupled to a CM5 chip, native ApoC3 injected, HBS-EP pH 7.4. Here is the method:
The SPR experiments were carried out using a Biacore 3000 instrument (GE Healthcare). Flow cells of CM5 sensor chips were coupled with the generated IgG formatted antibodies of 14C7, 5A7, 5E5 and 6A6 (˜2000 RU) using the amine coupling chemistry. The coupling was performed using the adaptive immobilization Biacore protocol aiming 2000 RU as coating density, using 10 μg/ml antibody solutions in 10 mM sodium acetate buffer at pH 5.0. For all experiments the HBS-EP buffer at pH 7.4 was used as running and dilution buffer. 60 μl of human native ApoC3 or cynomologus monkey native ApoC3 protein preparations in the concentration range of 10 to 200 μg/ml were injected over all flow channels, followed by an off-rate wash at pH7.4 for 5 min. All injections were performed at a constant flow rate of 30 μl/min at 25° C. After the dissociation, the flow cell surfaces were regenerated by injecting 10 μl of 10 mM NaOH/1 M NaCl and 10 μl of 10 mM glycine at pH1.5. The resulting sensorgrams after blank channel subtraction were used to confirm cross-species reactivity and to evaluate affinity.

T1 sequence (P02656 21-99): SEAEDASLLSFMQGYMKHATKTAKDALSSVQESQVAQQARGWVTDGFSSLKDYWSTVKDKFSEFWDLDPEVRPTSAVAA
Chain of cynomologus monkey ApoC3 (cynoApoC3), native protein (P18659 21-99 limits assumed): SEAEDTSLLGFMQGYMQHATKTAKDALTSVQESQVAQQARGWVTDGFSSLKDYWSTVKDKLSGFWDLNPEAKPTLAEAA

B1: 12D7 scFv (scFv, V domains shown)
VH: ELQLVESGGDLVQPGGSLRLSCAASGFTFDDYAMSWVRQAPGKGLEWVSAITSNGKRTDYAESMKGRFTISRDNSKNTLYLEMNSLKSEDTAVYYCTKGPPHYIPIPSMTPRDSWGQGTQVTVSS
VL: SSALTQPSAVSVSLGQTARITCQGGTLGRYYGSWYQQKPAQAPVLLIYGDNSRPSGIPERFSGSKSGDTATLTISGTQAEDEADYYCESFDFSGNAAVFGGGTHLTVL
notes: scFv (crude periplasmic extract) with C-terminal c-myc tag
Take B1: the binding result in experiment [1] was “binds”.

B2: 14C7 IgG1 (antibody, V domains shown)
VH: QVQVQESGPGLVKPSQTLSLTCTVSGGSITTNSYYWSWIRQPPGKGLEWMGAIDYSGDTYYSPSLKSRTSISRDTSKNQFTLQLTSVTPEDTAVYYCVSRIPTGEYWGQGTQVTVSS
VL: QTVVTQEPSLSVSPGGTVTLTCGLNSGSVTSSNYPDWYQQTPGQAPRLLIYNTNSRHSGVPSRFSGSISGNKAALTITGAQPEDEADYYCALYMGSDSVVFGGGTHLTVL
notes: IgG1 format
For B2, in experiment [2], the Ka was 1.46e+09 M⁻¹, the Kd was 0.684 nM, the koff was 5.61e-05 s⁻¹ and the kon worked out at 82000 M⁻¹ s⁻¹. In experiment [3], the “EC50, attenuation of ApoC3-mediated LPL inhibition (NEFA production)” value was around 2000 nM. In experiment [4], the binding result was “binds”.

B3: 12G8 scFv (scFv, V domains shown)
VH: QLQLVESGGGLVQPGGSLRLSCAASGFTFDDYAMSWVRQAPGKGLEWVSAIRWNGDTYYAESMKGRFDMSRDNAKNTLYLQMNSLKSEDTAVYYCAKHRPGGALDTWGQGTLVTVSS
VL: QAVLTQPSAVSVSLGQTARITCQGGNFGNFYASWYQQKPGQAPVLVIYKDSERPSGIPERFSGSSSGDTATLTISGAQAEDEADYYCQSGSSSDNVVFGGGTHLTVL
notes: as for B1
As for B3, the binding result in experiment [1] is on record as “binds”.

For orientation: Kd means the equilibrium constant for the complex coming apart. By koff is commonly meant the rate constant with which the complex falls apart. A word on the kon: it is a measure of how fast the partners come together.
